Legend:
[1] = target: strep-tagged QseE_(1-196) (Salmonella enterica serovar Typhimurium SL1344); experiment: cross-linking; QseE constructs in solution (Fig. S2A); cross-linker and conditions not shown
[2] = target: the molecule itself; experiment: cryo-EM structure; QseG_(37-221) and QseE mixed at 3:1 molar ratio, complex separated by SEC; 3.9 Å map with C2 symmetry imposed; model limited to QseG 58-220 and QseE 34-173
QseE = target: T1, QseE (Escherichia coli, UniProt Q8XA47)
T1 chain: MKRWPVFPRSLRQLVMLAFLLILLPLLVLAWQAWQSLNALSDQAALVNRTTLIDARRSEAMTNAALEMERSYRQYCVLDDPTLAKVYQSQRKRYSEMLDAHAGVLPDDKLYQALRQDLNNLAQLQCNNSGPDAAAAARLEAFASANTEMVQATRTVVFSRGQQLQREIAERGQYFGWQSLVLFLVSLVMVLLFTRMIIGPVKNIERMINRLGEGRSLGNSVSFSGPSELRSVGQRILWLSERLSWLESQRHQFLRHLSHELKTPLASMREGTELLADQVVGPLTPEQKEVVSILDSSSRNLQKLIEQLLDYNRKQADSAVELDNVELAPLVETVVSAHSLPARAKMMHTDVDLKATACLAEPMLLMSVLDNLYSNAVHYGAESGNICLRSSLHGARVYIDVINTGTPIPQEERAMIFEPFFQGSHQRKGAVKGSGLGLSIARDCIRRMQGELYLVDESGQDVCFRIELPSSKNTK

QseE-eGFP = target: T2, QseE-eGFP (Salmonella enterica serovar Typhimurium …, UniProt A0A4Z0KJZ8 1-461); experiment: MST; QseG_(37-end) in serial dilution mixed with QseE-eGFP; 20 mM HEPES pH 7.5, 150 mM NaCl, 0.02% DDM, 0.05% Tween 20; 25°C, 30 min; Monolith NT.115, medium MST power, 40% LED; conditions: both partners purified
T2 construct: QseE of S. Typhimurium SL1344 fused to eGFP; source: E. coli, purified
T2 sequence: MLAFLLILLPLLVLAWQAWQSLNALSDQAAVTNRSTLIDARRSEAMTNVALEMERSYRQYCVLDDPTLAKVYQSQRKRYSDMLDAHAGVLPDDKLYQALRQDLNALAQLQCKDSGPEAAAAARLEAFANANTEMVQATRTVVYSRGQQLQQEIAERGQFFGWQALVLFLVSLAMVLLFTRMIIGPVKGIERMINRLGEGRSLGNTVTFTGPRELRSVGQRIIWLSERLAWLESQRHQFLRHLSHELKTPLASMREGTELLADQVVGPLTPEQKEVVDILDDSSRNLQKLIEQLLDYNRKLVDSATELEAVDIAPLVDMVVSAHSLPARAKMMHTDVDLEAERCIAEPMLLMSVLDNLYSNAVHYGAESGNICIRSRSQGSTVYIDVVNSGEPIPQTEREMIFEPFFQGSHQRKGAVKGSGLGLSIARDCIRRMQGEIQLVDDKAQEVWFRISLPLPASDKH

Molecule: strep-tagged QseE_(1-196) (from UniProt A0A4Z0KJZ8 1-196) (domain or fragment)
- stoichiometry N [1]: 2

B1: full-length QseE (QseEfl), C-terminal Strep II tag (natural protein)
chain: T2 sequence
notes: Dimer by cross-linking and in the cryo-EM structure; also called strep-tagged QseE; source: E. coli C43(DE3), purified from membranes in LMNG/CHS (Strep-Tactin, SEC); not shown: Strep II, C-terminal, kept
- stoichiometry N [2]: 2

B2: QseG_(37-221) (domain or fragment)
chain: CVPHASQQLPDSAAQDTLPHYQLADYLPTACADIWSLRGQAVETNPLYWLRTIDCADRLMPVQSRAEARALTDDNWQNAFRRGILLADAKITPPERRAIVTRLEALSAQIPAQVRPVYQIWHDGQALQLALSAERQRYSKLQQTSDSELDALRQQQQALQTQLDLTTRKLESLTDIERQLSTRKP
notes: QseG of S. Typhimurium SL1344, residues 37-221; Homodimer in the cryo-EM structure of the complex; source: E. coli C43(DE3), purified (Strep-Tactin, on-column TEV cleavage, SEC); not shown: Strep II, N-terminal, cleaved
- stoichiometry N [2]: 2

B3: QseG (protein)
chain: CVQNHNKPAIDTPAEEKIPVYQLADYLSTECSDIWALQGKSTETNPLYWLRAMDCADRLMPAQSRQQARQYDDGSWQNTFKQGILLADAKITPYERRQLVARIEALSTEIPAQVRPLYQLWRDGQALQLQLAEERQRYSKLQQSSDSELDTLRQQHHVLQQQLELTTRKLENLTDIERQLSTRKPAGNFSPDTPHESEKPAPSTHEVTPDEP
- Kd (QseE): 109 nM

B4: QseG (mature lipoprotein, QseG_(37-end)) (natural protein)
chain: CVPHASQQLPDSAAQDTLPHYQLADYLPTACADIWSLRGQAVETNPLYWLRTIDCADRLMPVQSRAEARALTDDNWQNAFRRGILLADAKITPPERRAIVTRLEALSAQIPAQVRPVYQIWHDGQALQLALSAERQRYSKLQQTSDSELDALRQQQQALQTQLDLTTRKLESLTDIERQLSTRKPAGNYNADTPHTNDKPATSEDGAAPSPSQDEVTP
notes: also called wild-type QseG; source: E. coli C43(DE3), purified (Strep-Tactin, on-column TEV cleavage, SEC); not shown: Strep II, N-terminal, cleaved
- Kd (QseE-eGFP): 108 nM

Reference: paper PMC12691602, “Cryo-EM structure of the QseG-QseE complex reveals an accessory protein-driven two-component system activation mechanism” (mBio, 2025)
